Numbered stars: 1 amine (or outer) side, 2 acyl side, 3 side chain; on linkers, the order of the positions; unused ones are H or OH. Bridge positions count the residues as written; N and C are the ends. * marks the point of attachment. C20 diacid = O=C(O)CCCCCCCCCCCCCCCCCCC(=O)*; γGlu = O=C(O)[C@H](CCC(=O)[*:2])N[*:1]
Legend:
[1] = target: T1, human amylin receptor (amylin 3(a) receptor: human calcitonin receptor plus RAMP-3) (human, UniProt P30988 25-474; O60896 24-148); experiment: SPA competition binding, displacement of 125I-rat amylin, membranes of BHK amylin 3(a)/CRE-luc cells
T1 construct: whole, on cells; functional assay (II)a used the whole cells; also called hAmylin-R; hAmylinR
T1 sequence (looked up) 1: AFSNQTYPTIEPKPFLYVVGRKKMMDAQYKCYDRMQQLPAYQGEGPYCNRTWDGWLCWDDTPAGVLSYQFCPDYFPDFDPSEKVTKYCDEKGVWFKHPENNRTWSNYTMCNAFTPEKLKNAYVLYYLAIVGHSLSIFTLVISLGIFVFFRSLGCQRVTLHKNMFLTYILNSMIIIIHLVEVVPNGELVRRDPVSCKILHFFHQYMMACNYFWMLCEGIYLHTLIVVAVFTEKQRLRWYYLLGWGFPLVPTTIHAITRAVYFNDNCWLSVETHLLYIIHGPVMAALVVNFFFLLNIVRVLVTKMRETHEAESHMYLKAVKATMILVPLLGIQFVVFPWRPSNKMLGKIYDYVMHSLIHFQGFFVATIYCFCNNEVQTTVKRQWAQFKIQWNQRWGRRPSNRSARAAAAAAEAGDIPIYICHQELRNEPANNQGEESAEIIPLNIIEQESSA
T1 sequence (looked up) 2: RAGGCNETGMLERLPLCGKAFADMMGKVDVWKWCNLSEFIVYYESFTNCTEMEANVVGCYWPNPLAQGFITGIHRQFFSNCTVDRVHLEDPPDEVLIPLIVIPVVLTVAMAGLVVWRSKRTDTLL
Experimental: The binding assay was performed using scintillation proximity assay (SPA) beads (RPNQ0001) from PerkinElmer and cell membranes from the Amylin 3(a)/CRE-luc cells (as described in Assay (II)) were used. Membranes were prepared in the following way; the cells were rinsed with PBS and incubated with Versene for approximately 5 min before harvesting. The cells were flushed with PBS and the cell-suspension was centrifuged for 5 min at 1000 rpm. Cells were homogenized (ultrathurrax) in a buffer containing 20 mM Na-HEPES and 10 mM EDTA (pH 7.4) and centrifuged at 20.000 rpm for 15 min. The resulting pellet was resuspended, homogenized and centrifuged (20.000 rpm, 15 min) in a buffer containing 20 mM Na-HEPES and 0.1 mM EDTA (pH 7.4, buffer 2). The resulting pellet was resuspended in buffer 2 and protein concentration was measured (BCA protein Assay, Pierce). The homogenate was kept cold during the whole procedure. The membranes were kept at −80° C. until use. The assay was performed in a 384 well Optiplate (PerkinElmer) in a total volume of 40 ul. Membranes were mixed with SPA beads. Final concentration of membranes 35 ng/μL final and SPA beads was 0.05 mg/well. Test-compounds were dissolved in DMSO and further diluted in assay buffer (50 mM Hepes, pH 7.4, 1 mM CaCl2, 5 mM MgCl₂, 0.1% OA and 0.02% Tween20). […] The final mixture was incubated with shaking at 400 rpm for 120 min at 25° C. prior to centrifugation (1500 rpm, 10 min). Samples were analyzed on TopCounter™ (Packard). The IC₅₀ was calculated using (one site binding competition analysis) GraphPad Prism5 as a measure of receptor affinity.

[2] = target: T2, human calcitonin receptor (human, UniProt P30988 25-474); experiment: cell-based or functional assay
T2 sequence (looked up): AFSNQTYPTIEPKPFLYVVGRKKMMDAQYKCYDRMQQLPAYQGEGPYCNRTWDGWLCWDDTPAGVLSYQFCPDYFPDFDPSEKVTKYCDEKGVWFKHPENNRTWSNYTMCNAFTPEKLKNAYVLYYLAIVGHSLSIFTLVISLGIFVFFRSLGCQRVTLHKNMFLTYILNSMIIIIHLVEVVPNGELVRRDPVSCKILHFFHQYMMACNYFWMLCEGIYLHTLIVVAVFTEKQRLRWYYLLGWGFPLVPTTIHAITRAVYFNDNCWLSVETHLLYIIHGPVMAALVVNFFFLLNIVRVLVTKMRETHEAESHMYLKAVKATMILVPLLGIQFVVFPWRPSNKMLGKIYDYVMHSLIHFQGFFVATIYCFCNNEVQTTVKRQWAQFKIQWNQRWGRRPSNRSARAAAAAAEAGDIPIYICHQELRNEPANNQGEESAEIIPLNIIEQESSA

[3] = target: T1, human amylin receptor (amylin 3(a) …); experiment: cell-based or functional assay

B1: N^α1N^α1-[(4S)-4-carboxy-4-(19-carboxynonadecanoylamino)butanoyl]-[Glu14,Arg17,Pro21,Pro27,Glu35]-h-amylin (peptide)
peptide: {C20 diacid-γGlu}-KCNTATCATQRLAEFLRHSSPNFGAIPSSTNVGSETY-NH2
modifications: disulfide 2-7
SMILES: CC[C@H](C)[C@H](NC(=O)[C@H](C)NC(=O)CNC(=O)[C@H](Cc1ccccc1)NC(=O)[C@H](CC(N)=O)NC(=O)[C@@H]1CCCN1C(=O)[C@H](CO)NC(=O)[C@H](CO)NC(=O)[C@H](Cc1c[nH]cn1)NC(=O)[C@H](CCCNC(=N)N)NC(=O)[C@H](CC(C)C)NC(=O)[C@H](Cc1ccccc1)NC(=O)[C@H](CCC(=O)O)NC(=O)[C@H](C)NC(=O)[C@H](CC(C)C)NC(=O)[C@H](CCCNC(=N)N)NC(=O)[C@H](CCC(N)=O)NC(=O)[C@@H](NC(=O)[C@H](C)NC(=O)[C@@H]1CSSC[C@H](NC(=O)[C@H](CCCCN)NC(=O)CC[C@H](NC(=O)CCCCCCCCCCCCCCCCCCC(=O)O)C(=O)O)C(=O)N[C@@H](CC(N)=O)C(=O)N[C@@H]([C@@H](C)O)C(=O)N[C@@H](C)C(=O)N[C@@H]([C@@H](C)O)C(=O)N1)[C@@H](C)O)C(=O)N1CCC[C@H]1C(=O)N[C@@H](CO)C(=O)N[C@@H](CO)C(=O)N[C@H](C(=O)N[C@@H](CC(N)=O)C(=O)N[C@H](C(=O)NCC(=O)N[C@@H](CO)C(=O)N[C@@H](CCC(=O)O)C(=O)N[C@H](C(=O)N[C@@H](Cc1ccc(O)cc1)C(N)=O)[C@@H](C)O)C(C)C)[C@@H](C)O
notes: also called compound 22
IC50 [1]: 0.794 nM
hCTR funct. EC50 (pM) [2]: 1030 pM
Ratio hCT/hAmylin funct. [3]: 3.8
hAmylin-R funct. EC50 (pM) [3]: 270 pM

B2: N^α1-[(4S)-4-carboxy-4-(19-carboxynonadecanoylamino)butanoyl]-[Arg17,Pro21,Pro27,Glu35]-h-amylin (peptide)
peptide: KCNTATCATQRLANFLRHSSPNFGAIPSSTNVGSETY
modifications: C20 diacid-gGlu on the alpha amino group of the N-terminal residue (Lys1); disulfide Cys2-Cys7 and C-terminal amide as in human amylin
notes: also called compound 23
IC50 [1]: 0.871 nM
hCTR funct. EC50 (pM) [2]: 3020 pM
Ratio hCT/hAmylin funct. [3]: 8.9
hAmylin-R funct. EC50 (pM) [3]: 340 pM

From patent US20140087995A1 (published 2014)
